Assay results from patent US20060217306A1, “Systemic treatment of infections with defensins” (Novozymes A/S, priority 2005, published 2006).
Several values for one entry are separate records, joined by “and”; a condition that tells them apart may be missing. Equal values may be shown once. No end group written: not given here.

Columns and labels:
[1] = Stability in human serum; residual activity by radial diffusion assay with Staphylococcus carnosus; type: in vitro ADME; conditions: 37° C.; for Activity (%) 10% serum / Activity (%) 90% serum: 100 mg/L; for Activity (%) 10% serum: 10% human serum; for Activity (%) 90% serum: 90% human serum
Procedure: To assess the stability of the defensins in human serum, according to the invention, a solution of 100 mg/L of a defensin in fresh normal human serum is incubated at 37 degrees Celsius for 0, 1, 3, 6 and 24 hours. Residual activity is measured by performing radial diffusion assays with a sensitive indicator organism (e.g., Staphylococcus carnosus or E. coli); by performing a quantification by HPLC, LCMSMS; or by performing various ELISA techniques well known to a person skilled in the art.
To assess serum stability, Plectasin (100 mg/L) was incubated at 37° C. in 10% and 90% fresh normal human serum for 0, 1, 3, 6 & 24 hours. Residual activities were measured by performing radial diffusion assays with Staphylococcus carnosus.

[2] = Single dose intravenous toxicity study in the mouse / maximum tolerable dose; type: in vivo; conditions: 125 mg/kg single i.v. dose
Procedure: The study, to determine the maximum tolerable dose in mice, should be initiated with a sighting study to select the appropriate dose level for the main study. For example, six dose levels could be investigated using one male and one female mouse at each dose level.
On the basis of any signs of toxicity, the selected dose is administered to five male and five female mice as a single intravenous dose in a dose volume of 10 ml/kg. The dose should be administered slowly in the tail vein (e.g., 20 seconds per injection using a 1 ml syringe with a 25G hypodermic needle). All animals should be observed for any signs of toxicity after 15 minutes, 1 hour, 3 hours, 6 hours and 24 hours after administration.
A single intravenous dose was administered slowly in the tail vein (20 seconds per injection) using a 1 ml syringe with a 25G hypodermic needle to 5 male and 5 female mice. […] Body weight was recorded on Day 1, 2, 8 and 15. At termination of the study gross necropsy examination of all animals was carried out.

[3] = Systemic availability: in vivo kinetics, serum concentration by LCMSMS; parameters: species or system NMRI female mice; conditions: for Serum concentration: 14 mg/kg single dose, individual mice; for Maximum observed mean concentration / Time of maximum observed mean concentration: serum
Procedure: The in vivo kinetics of plectasin was investigated in NMRI female mice, 25-30 gram (Harlan Scandinavia Aps), after a single 14 mg/kg dose, administered by either intravenous, subcutaneous or intraperitoneal routes. Plectasin concentrations in serum samples were determined 5, 15, 30, 60, 120 and 180 minutes after dosing, using two mice at each time point. At each time point, urine was collected, then mice were anaesthetized with CO2 and blood collected. The blood samples were centrifuged and serum collected. The concentration of plectasin in serum and urine were determined by LCMSMS.
The maximum observed mean concentrations for i.v., s.c. and i.p. dosing were: 95 mg/L after 5 min., 55 and 34 mg/L after 30 min., respectively.

[4] = system: S. pneumoniae strain 68034; test: Treatment of pneumococcal peritoneal infection, colony counts in peritoneal wash, strain 68034; type: in vivo, mice; conditions: for Colony counts: strain 68034, peritoneal wash, individual mice
Procedure: (§1) Three different pneumococcal strains were employed in this study (6A, D39 and 68034). Three mice per sampling point were inoculated with a specific S. pneumoniae i.p., and were treated 1 hour later with a single dose of 10 mg/kg Plectasin. Peritoneal wash was sampled for microbial counts prior to treatment (T=0), and at T=2 and T=5 hrs after. The colony counts are listed below for all three strains.

S. pneumoniae strain D39 [5] = test: Treatment of pneumococcal peritoneal infection, colony counts in peritoneal wash, strain D39; type: in vivo, mice; conditions: for Colony counts: strain D39, peritoneal wash, individual mice
Procedure: as §1

S. pneumoniae strain 6A = test: Treatment of pneumococcal peritoneal infection, colony counts in peritoneal wash, strain 6A; type: in vivo, mice; conditions: for Colony counts: peritoneal wash, individual mice
Procedure: as §1

S. pneumoniae D39 = test: Survival after peritoneal infection with S. pneumoniae D39; type: in vivo; conditions: groups of eight mice, vehicle 0/8
Procedure: as §1
Treatment with Plectasin s.c. 10 mg/kg was initiated one hour after inoculation as described in Example 4A above. The following dosing regimens were investigated in groups of eight mice: vehicle treated, Plectasin once daily (OD) for one day, twice daily (BID) for one day or BID for two days. […] The survival fraction of the vehicle treated control group was 0/8 mice (P<0.0002).

S. pneumoniae 68034 = test: Survival after peritoneal infection with S. pneumoniae 68034; type: in vivo; conditions: s.c. 10 mg/kg BID for one or two days, groups of eight mice; vehicle 0/8, P<0.0002
Procedure: as §1
Treatment with Plectasin s.c. 10 mg/kg was initiated one hour after inoculation as described in Example 4A above. The following dosing regimens were investigated in groups of eight mice: vehicle treatment, Plectasin BID for one or two days. The survival fraction at seven days post-infection was 6/8 for Plectasin treated mice and 0/8 for vehicle treated mice (P<0.0002).

S. pneumoniae strain D39 [6] = test: Treatment of pneumococcal pneumonia, colony counts in lung homogenates; type: in vivo, mice; conditions: for Colony counts in lung homogenates: one day after treatment, individual mice
Procedure: Six to seven mice per sampling point (12 in the no-treatment group) were inoculated with S. pneumoniae (data only shown for strain D39) via the nasopharynx, and 24 hrs later the animals received Plectasin 10 mg/kg or penicillin 30 mg/kg.

[7] = 2 hours after single dose 10 mg/kg, 10 mg/kg
[8] = 5 hours after single dose 10 mg/kg, 10 mg/kg

## Plectasin: Defensin shown as amino acids 1 to 40 of SEQ ID NO: 2 in international patent application WO 03/044049; defensin antimicrobial peptide (GFGCNGPWDEDDMQCHNHCKSIKGYKGGYCAKGGFVCKCY; ends and bridges not checked; cysteine pairing not given here; UniProt Q53I06 56-95, looked up)
[1]; 0 hours
  Activity (%) 10% serum: 100%
  Activity (%) 90% serum: 100%
[1]; 1 hour
  Activity (%) 10% serum: ˜100%
  Activity (%) 90% serum: ˜100%
[1]; 3 hours
  Activity (%) 10% serum: ˜100%
  Activity (%) 90% serum: ˜100%
[1]; 6 hours
  Activity (%) 10% serum: ˜100%
  Activity (%) 90% serum: ˜100%
[1]; 24 hours
  Activity (%) 10% serum: ˜100%
  Activity (%) 90% serum: ˜100%
[1]; after 24 hours of incubation in 90% human serum
  Residual activity (in words): Full activity was retained
[2]; 10 ml/kg, 15 minutes after treatment, 5 male and 5 female mice
  Finding at the injection site: all animals had a discoloration at the injection site
[2]; 10 ml/kg, observed over 14 days
  Other signs of toxicity: No other signs of toxicity were observed
[2]; at termination of the study
  Gross necropsy: no abnormalities
[3]; 14 mg/kg, mice, estimated
  Terminal half-life: 49 to 54 min
[3]; IP, 5 min, 14 mg/kg
  Serum concentration: 9400 ng/mL and 7200 ng/mL
[3]; IP, 15 min, 14 mg/kg
  Serum concentration: 26000 ng/mL and 31600 ng/mL
[3]; IP, 30 min, 14 mg/kg
  Serum concentration: 32500 ng/mL and 35400 ng/mL
[3]; IP, 60 min, 14 mg/kg
  Serum concentration: 27700 ng/mL and 14300 ng/mL
[3]; IP, 120 min, 14 mg/kg
  Serum concentration: 10900 ng/mL and 20300 ng/mL
[3]; IP, 180 min, 14 mg/kg
  Serum concentration: 2600 ng/mL and 5600 ng/mL
[3]; IV, 5 min, 14 mg/kg
  Serum concentration: 92100 ng/mL and 97900 ng/mL
[3]; IV, 15 min, 14 mg/kg
  Serum concentration: 58800 ng/mL and 58100 ng/mL
[3]; IV, 30 min, 14 mg/kg
  Serum concentration: 35700 ng/mL and 27300 ng/mL
[3]; IV, 60 min, 14 mg/kg
  Serum concentration: 14900 ng/mL and 15600 ng/mL
[3]; IV, 120 min, 14 mg/kg
  Serum concentration: 5300 ng/mL and 4900 ng/mL
[3]; IV, 180 min, 14 mg/kg
  Serum concentration: 2300 ng/mL and 3500 ng/mL
[3]; SC, 5 min, 14 mg/kg
  Serum concentration: 20300 ng/mL and 25400 ng/mL
[3]; SC, 15 min, 14 mg/kg
  Serum concentration: 49400 ng/mL and 56600 ng/mL
[3]; SC, 30 min, 14 mg/kg
  Serum concentration: 50300 ng/mL and 60000 ng/mL
[3]; SC, 60 min, 14 mg/kg
  Serum concentration: 24800 ng/mL and 27200 ng/mL
[3]; SC, 120 min
  Serum concentration: 29800 ng/mL
[3]; SC, 180 min, 14 mg/kg
  Serum concentration: 4600 ng/mL and 7200 ng/mL
[3]; i.p., 14 mg/kg
  Maximum observed mean concentration: 34 mg/L
  Time of maximum observed mean concentration: 30 min
[3]; i.v. bolus administration, WinNonlin
  Concentration-time behavior: two-compartment behavior
[3]; i.v., 14 mg/kg
  Maximum observed mean concentration: 95 mg/L
  Time of maximum observed mean concentration: 5 min
[3]; s.c., 14 mg/kg
  Maximum observed mean concentration: 55 mg/L
  Time of maximum observed mean concentration: 30 min
[4]; strain 68034, 10 mg/kg, P<0.0001
  Colony counts compared to vehicle treated mice: significant lower
[4]; 0 hours (prior to treatment)
  Colony counts: 3E5 and 5.5E5 and 3.5E5
[4]; [7]
  Colony counts: 3.25E4 (2×) and 1.5E4
[4]; [8]
  Colony counts: 4E2 and 1E2 and 7.5E1
S. pneumoniae strain D39 [5]; strain D39, 10 mg/kg, P<0.0001
  Colony counts compared to vehicle treated mice: significant lower
S. pneumoniae strain D39 [5]; 0 hours (prior to treatment)
  Colony counts: 3.25E6 and 1.8E6 (2×)
S. pneumoniae strain D39 [5]; [7]
  Colony counts: 2.75E4 and 1.1E4 and 2E4
S. pneumoniae strain D39 [5]; [8]
  Colony counts: 2.5E2 and 3.5E2 and 1E2
S. pneumoniae strain 6A; 10 mg/kg, P<0.0001
  Colony counts compared to vehicle treated mice: significant lower
S. pneumoniae strain 6A; 0 hours (prior to treatment)
  Colony counts: 1.1E6 and 1.55E6 and 1E6
S. pneumoniae strain 6A; [7]
  Colony counts: 3.5E5 (2×) and 1.78E5
S. pneumoniae strain 6A; [8]
  Colony counts: 2.13E4 and 1.43E3 and 1.45E3
S. pneumoniae D39; s.c. 10 mg/kg BID for two days
  Survival over the 7-day study period: All mice treated with Plectasin survived
S. pneumoniae D39; s.c. 10 mg/kg once daily (OD) for one day
  Survival over the 7-day study period: All mice treated with Plectasin survived
S. pneumoniae D39; s.c. 10 mg/kg twice daily (BID) for one day
  Survival over the 7-day study period: except for one mouse
S. pneumoniae 68034
  Survival fraction at seven days post-infection: 6/8
S. pneumoniae strain D39 [6]; strain D39, 10 mg/kg
  Colony counts compared to no treatment: significant reduction
S. pneumoniae strain D39 [6]; strain D39, 10 mg/kg given 24 hrs after inoculation
  Colony counts in lung homogenates: 3E1 (2×) and 5.25E3 and 6.75E2 and 9.75E4 and 2.25E3 and 1.5E2

## penicillin [reference compound]
S. pneumoniae strain D39 [6]; strain D39, 30 mg/kg
  Colony counts compared to no treatment: significant reduction
S. pneumoniae strain D39 [6]; strain D39, 30 mg/kg given 24 hrs after inoculation
  Colony counts in lung homogenates: 7.5E1 (3×) and 4.5E3 and 2.25E4 and 4.89E5
